Measured values from patent publication US20240425606A1, “ANTI-IL-11RA ANTIBODIES” (Lassen Therapeutics 1, Inc., priority 2021, published 2024).
Positions count from the first letter of the chain named. Names and notes keep the numbering of the source.

T1: human IL-11Rα (human, UniProt Q14626 23-363, limits assumed)
T1 construct: Protein coated on ELISA plates and used in solution for BLI; also called hIL-11Rα; hIL-11R
T1 sequence: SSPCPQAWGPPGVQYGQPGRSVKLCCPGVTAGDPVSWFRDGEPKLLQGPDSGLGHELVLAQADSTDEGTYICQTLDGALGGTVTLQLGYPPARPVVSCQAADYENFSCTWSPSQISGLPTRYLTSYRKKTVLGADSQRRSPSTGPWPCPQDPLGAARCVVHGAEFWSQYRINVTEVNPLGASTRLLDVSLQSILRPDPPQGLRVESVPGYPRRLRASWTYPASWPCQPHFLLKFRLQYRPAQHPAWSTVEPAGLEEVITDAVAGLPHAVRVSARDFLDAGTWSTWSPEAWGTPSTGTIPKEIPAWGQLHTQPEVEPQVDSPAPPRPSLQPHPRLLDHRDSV

T2: IL-11R on STAT3 Reporter (Luciferase)-HEK293 cells (UniProt Q14626 23-422)
T2 sequence (looked up): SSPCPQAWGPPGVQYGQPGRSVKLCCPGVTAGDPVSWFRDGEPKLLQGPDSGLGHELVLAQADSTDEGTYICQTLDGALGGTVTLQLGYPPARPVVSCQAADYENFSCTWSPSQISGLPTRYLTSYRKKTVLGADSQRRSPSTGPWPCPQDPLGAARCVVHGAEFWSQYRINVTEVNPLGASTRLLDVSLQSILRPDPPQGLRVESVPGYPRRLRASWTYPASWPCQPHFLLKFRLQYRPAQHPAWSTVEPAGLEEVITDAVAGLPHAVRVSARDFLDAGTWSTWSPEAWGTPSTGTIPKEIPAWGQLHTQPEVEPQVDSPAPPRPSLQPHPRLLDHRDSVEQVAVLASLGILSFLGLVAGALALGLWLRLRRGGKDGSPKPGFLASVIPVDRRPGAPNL

B1: mAb5 (antibody, V domains shown)
VH: EVQLLESGGGLVQPGGSLRLSCAASGFTFSWYSMTWVRQAPGKGLEWVSSIVPYGDLTQYADSVKGRFTISRDNSKNTLYLQMNSLRAEDTAVYYCAKGPGWGSFDLWGRGTLVTVSS
VL: DIQMTQSPSSLSASVGDRVTITCQASQDINNYLNWYQQKPGKAPKLLIYDASNLQTGVPSRFSGSGSGTDFTFTISSLQPEDIATYYCQQHESQSPTFGPGTKVDIK
notes: Expressed as human IgG4 (S228P EU); also called mAb5 IL11RA Ab
B2: mAb14 (antibody, V domains shown)
VH: B1 VH with D62E
VL: B1 VL
notes: Expressed as human IgG4 (S228P EU)
B3: mAb15 (antibody, V domains shown)
VH: B1 VH
VL: B1 VL with S93T, S95T
notes: as for B2
B4: mAb8 (antibody, V domains shown)
VH: B1 VH with W31S, S33A, T35S
VL: B1 VL
notes: as for B2
B5: mAb6 (antibody, V domains shown)
VH: B1 VH
VL: B1 VL with S93F
notes: as for B2
B6: mAb7 (antibody, V domains shown)
VH: B1 VH with W31N, S33A, T35S
VL: B1 VL
notes: as for B2
B7: mAb12 (antibody, V domains shown)
VH: B1 VH with G103Y
VL: B1 VL
notes: as for B2
B8: mAb9 (antibody, V domains shown)
VH: B1 VH with S50G
VL: B1 VL
notes: as for B2
B9: mAb10 (antibody, V domains shown)
VH: B1 VH with P53A
VL: B1 VL
notes: as for B2
B10: mAb11 (antibody, V domains shown)
VH: B1 VH with P53D
VL: B1 VL
notes: as for B2
B11: mAb13 (antibody, V domains shown)
VH: B1 VH with G99P, P100E, G101D, S104R
VL: B1 VL
notes: as for B2
B12: mAb3 (antibody, V domains shown)
VH: B1 VH with G101D
VL: B1 VL
notes: as for B2
B13: mAb4 (antibody, V domains shown)
VH: B1 VH with G101D
VL: B1 VL with S93F
notes: as for B2
B14: mAb2 (antibody, V domains shown)
VH: B1 VH with Y54S, D56G, L57H, G101D
VL: B1 VL with S93F
notes: as for B2

Each binder was assayed against T1, human IL-11Rα (assay: BLI (Octet RED96e), mAb on protein G biosensors, hIL-11Rα in solution).
Experimental: Association was carried out in the presence of a 2-fold dilution series of hIL-11Rα and was allowed to proceed for 120 seconds; dissociation was measured for 300 to 1200 seconds.

| Kd [pM] | koff [s⁻¹] | kon [M⁻¹ s⁻¹] | Binder |
| --- | --- | --- | --- |
| < 1 | < 1e-07 | 63700 | B1 |
| < 1 | < 1e-07 | 33700 | B2 |
| < 1 | < 1e-07 | 84000 | B3 |
| < 1 | < 1e-07 | 65100 | B4 |
| < 1 | < 1e-07 | 800000 | B5 |
| < 1 | < 1e-07 | 63500 | B6 |
| < 1 | < 1e-07 | 58100 | B7 |
| < 1 | < 1e-07 | 62200 | B8 |
| 496 | 0.000416 | 840000 | B9 |
| 550000 | 0.0181 | 32900 | B10 |
| < 1 | < 1e-07 | 66700 | B11 |

Each binder was assayed against T1, human IL-11Rα (assay: competitive ELISA, IL-11R coated on plate; competitor: biotinylated 8E2 (0.1 µg/mL)).
Experimental: (§1) Relative binding activity of the antibodies was tested by competitive ELISA using biotinylated mAbs 8E2 or TS7. Antibodies 8E2 and TS7 were biotinylated using sulfo-NHS Biotin (Thermo Fisher) per the manufacturer's instructions. IL-11R was coated onto ELISA plates (Nunc, MaxiSorp) at 2 μg/mL in PBS, and plates were blocked with 2% BSA in PBS. After washing the plate with water, antibodies to be tested were titrated across the plate in a final volume of 90 μL followed by addition of 10 μL of biotinylated 8E2 or biotinylated TS7, as indicated in Table E1 (0.1 μg/mL final concentration) to each well. Plates were incubated for 2 hours on a plate-shaker, followed by washing and addition of 100 μL/well of streptavidin-HRP (Jackson ImmunoResearch, 1/1000 dilution). After a further 1 hour incubation, plates were washed, developed with Ultra-TMB HRP substrate (Thermo Fisher), and stopped by the addition of 50 μL/well of 2 M sulfuric acid. Plates were read at 450 nm on an iD5 plate reader (Molecular Devices).

| IC50 [µg/mL] | Binder |
| --- | --- |
| 1.4 | B1 |
| 1.5 | B5 |
| 2.8 | B12 |
| 5.5 | B13 |
| > 30 | B14 |

What follows are binders tested against T1, human IL-11Rα (assay: competitive ELISA, IL-11R coated on plate; competitor: biotinylated TS7 (0.1 µg/mL)).
Experimental: as §1

| IC50 [µg/mL] | Binder |
| --- | --- |
| 2.1 | B1 |
| 2 | B2 |
| 1.7 | B3 |
| 6.2 | B4 |
| 6.9 | B6 |
| 3.6 | B7 |
| 2.3 | B8 |
| > 15 | B9 |
| > 15 | B10 |
| 2.3 | B11 |

What follows are binders tested against T2, IL-11R on STAT3 Reporter … (assay: cell-based or functional assay).

| IC50, STAT3 luciferase reporter assay (HEK293), inhibiting IL-11, Assay 1 [µg/mL] | IC50, STAT3 luciferase reporter assay (HEK293), inhibiting IL-11, Assay 2 [µg/mL] | IC50, STAT3 luciferase reporter assay (HEK293), inhibiting IL-11, Mean [µg/mL] | Binder |
| --- | --- | --- | --- |
| 0.16 | 0.18 | 0.17 | B1 |
| 0.39 | 0.28 | 0.34 | B2 |
| 0.38 | 0.33 | 0.36 | B3 |
| 0.67 | 1.25 | 0.96 | B4 |
| 11 | 0.39 | 5.7 | B5 |
| 1 | – | 1 | B6 |
| 0.42 | 0.39 | 0.41 | B7 |
| 0.11 | 0.1 | 0.1 | B8 |
| 2 | – | 2 | B9 |
| > 100 | – | > 100 | B10 |
| 0.05 | 0.19 | 0.12 | B11 |

What follows are binders tested against T1, human IL-11Rα (assay: BLI (Octet RED96e), mAb on anti-human constant domain (AHC) biosensors, hIL-11R in solution).
Excerpt: A further series of antibodies were designed in which the residue at Kabat position 31 of the heavy chain was varied (mAbs 16-32). In this case an alternate biolayer interferometry assay was used to initially rank the antibodies compared to mAb5, the closest relative in sequence to mAbs 16-32. MAbs were loaded onto anti-human constant domain (AHC) biosensors (FortdBio) in 10× kinetics buffer consisting of PBS, 0.1% BSA, 0.02% Tween 20 for 120 s to achieve a spectral shift value of 0.8 to 1.2 nm. Association was carried out in the presence of 2-fold dilution series of hIL-1 IR and was allowed to proceed for 120 s. Dilution series started 10 nM. The dissociation in 10× kinetics buffer for 1200 s. Binding kinetic measurements were taken on an Octet RED96e instrument.

| Kd [pM] | koff [s⁻¹] | kon [M⁻¹ s⁻¹] | Binder |
| --- | --- | --- | --- |
| 50 | 2.5e-05 | 490000 | B1 |
